Experimental data: article PMC9221696

B1: wild-type Fas receptor (Fas/CD95) tagged with mCerulean3 or mVenus [human] / itself (parent)
chain: QVTDINSKGLELRKTVTTVETQNLEGLHHDGQFCHKPCPPGERKARDCTVNGDEPDCVPCQEGKEYTDKAHFSSKCRRCRLCDEGHGLEVEINCTRTQNTKCRCKPNFFCNSTVCEHCDPCTKCEHGIIKECTLTSNTKCKEEGSRSNLGWLCLLLLPIPLIVWVKRKEVQKTCRKHRKENQGSHESPTLNPETVAINLSDVDLSKYITTIAGVMTLSQVKGFVRKNGVNEAKIDEIKNDNVQDTAEQKVQLLRNWHQLHGKKEAYDTLIKDLKKANLCTLAEKIQTIILKDITSDSENSNFRNEIQSLV
B2: wild-type Fas receptor (Fas/CD95) tagged with mCerulean3 or mVenus [human] / Cerulean3-tagged FADD containing only the death domain (FADD DD) [human] (parent)
chain 1: LCAAFNVICDNVGKDWRRLARQLKVSDTKIDSIEDRYPRNLTERVRESLRIWKNTEKENATVAHLVGALRSCQMNLVADLVQEVQ
chain 2: B1 chain

Experiments:
itself = variants of: B1; test: flow-cytometric FRET (mCerulean3/mVenus) in live cells; conditions: with itself, RapoC2 (Fas-deficient Jurkat) cells, 24 h post-transfection, read off a plot
[1] = variants of: B2; test: flow-cytometric FRET between Fas and FADD DD in live cells; conditions: with Cerulean3-tagged FADD containing only the death domain (FADD DD) [human], RapoC2 (Fas-deficient Jurkat) cells, read off a plot

Variant	screen value (itself; FasL-LZ 5 min, parent: 1.5)	screen value (itself; FasL-LZ 15 min, parent: 1.9)	screen value (itself; FasL-LZ 30 min, parent: 2)	screen value (itself; FasL-LZ 60 min, parent: 1.9)	screen value (itself; FasL-LZ 120 min, parent: 1.9)	screen value ([1]; FasL-LZ 5 min, parent: 1.3)	screen value ([1]; FasL-LZ 15 min, parent: 1.5)	screen value ([1]; FasL-LZ 30 min, parent: 1.7)	screen value ([1]; FasL-LZ 60 min, parent: 1.9)	screen value ([1]; FasL-LZ 120 min, parent: 1.9)
QVTDINSKGLELRKTVTTVETQNLEGLHHDGQFCHKPCPPGERKARDCTVNGDEPDCVPCQEGKEYTDKAHFSSKCRRCRLCDEGHGLEVEINCTRTQNTKCRCKPNFFCNSTVCEHCDPCTKCEHGIIKECTLTSNTKCKEEGSRSNLGWLCLLLLPIPLIVWVKRKEVQKTCRKHRKENQGSHESPTLNPETVAINLSDVDLSKYITTIAGVMTLSQVKGFVRKNGVNEAKIDKIKNDNVQDTAEQKVQLLRNWHQLHGKKEAYDTLIKDLKKANLCTLAEKIQTIILKDITSDSENSNFRNEIQSLV [chain 1 E236K]	1.3	1.5	1.6	1.6	1.6					
QVTDINSKGLELRKTVTTVETQNLEGLHHDGQFCHKPCPPGERKARDCTVNGDEPDCVPCQEGKEYTDKAHFSSKCRRCRLCDEGHGLEVEINCTRTQNTKCRCKPNFFCNSTVCEHCDPCTKCEHGIIKECTLTSNTKCKEEGSRSNLGWLCLLLLPIPLIVWVKRKEVQKTCRKHRKENQGSHESPTLNPETVAINLSDVDLSKYITTIAGVMTLSQVKGFVRKNGVNEDKIDEIKNDNVQDTAEQKVQLLRNWHQLHGKKEAYDTLIKDLKKANLCTLAEKIQTIILKDITSDSENSNFRNEIQSLV [chain 1 A232D]	1.3	1.5	1.6	1.6	1.6					
QVTDINSKGLELRKTVTTVETQNLEGLHHDGQFCHKPCPPGERKARDCTVNGDEPDCVPCQEGKEYTDKAHFSSKCRRCRLCDEGHGLEVEINCTRTQNTKCRCKPNFFCNSTVCEHCDPCTKCEHGIIKECTLTSNTKCKEEGSRSNLGWLCLLLLPIPLIVWVKRKEVQKTVRKHRKENQGSHESPTLNPETVAINLSDVDLSKYITTIAGVMTLSQVKGFVRKNGVNEAKIDEIKNDNVQDTAEQKVQLLRNWHQLHGKKEAYDTLIKDLKKANLCTLAEKIQTIILKDITSDSENSNFRNEIQSLV [chain 1 C174V]	1.5	1.9	2.1							
chain 2 QVTDINSKGLELRKTVTTVETQNLEGLHHDGQFCHKPCPPGERKARDCTVNGDEPDCVPCQEGKEYTDKAHFSSKCRRCRLCDEGHGLEVEINCTRTQNTKCRCKPNFFCNSTVCEHCDPCTKCEHGIIKECTLTSNTKCKEEGSRSNLGWLCLLLLPIPLIVWVKRKEVQKTCRKHRKENQGSHESPTLNPETVAINLSDVDLSKYITTIAGVMTLSQVKGFVRKNGVNEAKIDKIKNDNVQDTAEQKVQLLRNWHQLHGKKEAYDTLIKDLKKANLCTLAEKIQTIILKDITSDSENSNFRNEIQSLV [chain 2 E236K]						1.1	1.1	1.1	1.1	1.1
chain 2 QVTDINSKGLELRKTVTTVETQNLEGLHHDGQFCHKPCPPGERKARDCTVNGDEPDCVPCQEGKEYTDKAHFSSKCRRCRLCDEGHGLEVEINCTRTQNTKCRCKPNFFCNSTVCEHCDPCTKCEHGIIKECTLTSNTKCKEEGSRSNLGWLCLLLLPIPLIVWVKRKEVQKTVRKHRKENQGSHESPTLNPETVAINLSDVDLSKYITTIAGVMTLSQVKGFVRKNGVNEAKIDEIKNDNVQDTAEQKVQLLRNWHQLHGKKEAYDTLIKDLKKANLCTLAEKIQTIILKDITSDSENSNFRNEIQSLV [chain 2 C174V]						1.4	1.6	1.8	1.9	2
chain 2 QVTDINSKGLELRKTVTTVETQNLEGLHHDGQFCHKPCPPGERKARDCTVNGDEPDCVPCQEGKEYTDKAHFSSKCRRCRLCDEGHGLEVEINCTRTQNTKCRCKPNFFCNSTVCEHCDPCTKCEHGIIKECTLTSNTKCKEEGSRSNLGWLCLLLLPIPLIVWVKRKEVQKTCRKHRKENQGSHESPTLNPETVAINLSDVDLSKYITTIAGVMTLSQVKGFVRKNGVNEDKIDEIKNDNVQDTAEQKVQLLRNWHQLHGKKEAYDTLIKDLKKANLCTLAEKIQTIILKDITSDSENSNFRNEIQSLV [chain 2 A232D]						1.1	1.1	1.1	1.1	1.1
